The test concerns the target recombinant His-tag PCNA (proliferating cell nuclear antigen) (human, UniProt P12004 1-261). As to the kind of experiment: SPR. Background: Surface plasmon resonance follows binding to a sensor surface in real time, without labels.

A word on the Kd: it is the free concentration of one partner at which half of the binding sites on the other are occupied at equilibrium, for simple one-to-one binding.

Sequence of recombinant His-tag PCNA (proliferating cell nuclear antigen) (P12004 whole entry): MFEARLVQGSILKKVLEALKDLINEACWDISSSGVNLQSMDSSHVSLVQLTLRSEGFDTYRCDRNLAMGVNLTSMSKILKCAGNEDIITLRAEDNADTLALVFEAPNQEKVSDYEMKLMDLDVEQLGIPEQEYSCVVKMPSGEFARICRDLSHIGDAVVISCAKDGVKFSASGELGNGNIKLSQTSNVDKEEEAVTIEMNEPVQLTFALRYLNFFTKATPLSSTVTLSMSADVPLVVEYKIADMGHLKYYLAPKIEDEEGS

B1: NKp44-Ig (Fc fusion, UniProt O95944 22-192, looked up)
chain: QSKAQVLQSVAGQTLTVRCQYPPTGSLYEKKGWCKEASALVCIRLVTSSKPRTMAWTSRFTIWDDPDAGFFTVTMTDLREEDSGHYWCRIYRPSDNSVSKSVRFYLVVSPASASTQTSWTPRDLVSSQTQTQSCVPPTAGARQAPESPSTIPVPSQPQNSTLRPGPAAPIA
As to B1, the Kd amounted to 3.4 nM.

The record behind these values is PMC3269963 (Journal of Immunology (Baltimore, Md. : 1950), 2011).
